Assay results reported in patent US7361341B2, “Methods of treating cancer using antibodies that immunospecifically bind to trail receptors” (Human Genome Sciences, Inc., priority 2001, dated 2008).

Key:
Assay in all cases: Specificity phage ELISA
Format in all cases: binding
Conditions in all cases: antigen coated at 1 μg/ml, absorbance at 450 nm
[1] = target: BLyS (Homo sapiens, UniProt Q9Y275)
Method: (§1) To determine the specificity of the antibodies which bound TR4, a phage ELISA was performed against human TR4 fusion protein, and a panel of related and unrelated human antigens TR7, TR5, TR10, BlyS (described in International Patent Publication Numbers WO98/18921 and WO00/50597, which are both herein icorprated by reference in their entireties), irrelevant fusion protein and BSA.
(§2) Individual E. coli colonies containing phagemid were inoculated into 5 ml 2YTAG and incubated at 37° C. for 4 hours, shaking. M13K07 helper phage (Pharmacia) was added to each tube to an moi of 10 and incubated for […], the first 30 minutes static and the final 30 minutes with gentle shaking. Cells were pelleted by centrifugation at 3,500 rpm for 10 minutes. The phage containing supernatant (5 ml) was carefully transferred to a fresh tube, 1 ml of 6 MPBS added and then incubated at room temperature for 1 hour to pre-block the phage prior to ELISA.
(§3) Flexible 96-well plates (Falcon) were coated overnight at 4° C. with each antigen (1 μg/ml). All antigens were coated in PBS. After coating, the solutions were removed from the wells, and the plates were blocked for 1 hour at room temperature in MPBS. The plates were washed 3 times with PBS and then 50 μl of pre-blocked phage was added to each well. The plates were incubated at room temperature for 1 hour and then washed with 3 changes of PBST followed by 3 changes of PBS.
(§4) To each well, 50 μl of an anti-M13-HRP conjugate (Pharmacia) at a 1 in 5000 dilution in MPBS was added and the plates incubated at room temperature for 1 hour. Each plate was washed three times with PBST followed by three times with PBS.
(§5) Fifty μl of TMB substrate was then added to each well, and incubated at room temperature for 30 minutes or until colour development. The reaction was stopped by the addition of 25 μl of 0.5 M H2SO4. The signal generated was measured by reading the absorbance at 450 nm (A450) using a microtitre plate reader (Bio-Rad 3550).

[2] = target: T1, TR5 (Homo sapiens, UniProt O14798, I229T)
T1 sequence (O14798 with tags, fused parts or gaps I229T limits assumed): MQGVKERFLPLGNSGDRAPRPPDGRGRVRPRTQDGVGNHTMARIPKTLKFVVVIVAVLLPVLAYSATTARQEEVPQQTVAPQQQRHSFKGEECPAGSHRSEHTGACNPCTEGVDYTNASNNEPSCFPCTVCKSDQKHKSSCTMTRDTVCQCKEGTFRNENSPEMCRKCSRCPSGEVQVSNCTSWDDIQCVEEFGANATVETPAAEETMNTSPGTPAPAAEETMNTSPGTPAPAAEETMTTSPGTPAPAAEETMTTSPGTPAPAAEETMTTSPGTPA
Method: as §1, §2, §3, §4, §5

[3] = target: T2, TR10 (Homo sapiens, UniProt Q9UBN6, L310S)
T2 sequence (Q9UBN6 56-386 L310S): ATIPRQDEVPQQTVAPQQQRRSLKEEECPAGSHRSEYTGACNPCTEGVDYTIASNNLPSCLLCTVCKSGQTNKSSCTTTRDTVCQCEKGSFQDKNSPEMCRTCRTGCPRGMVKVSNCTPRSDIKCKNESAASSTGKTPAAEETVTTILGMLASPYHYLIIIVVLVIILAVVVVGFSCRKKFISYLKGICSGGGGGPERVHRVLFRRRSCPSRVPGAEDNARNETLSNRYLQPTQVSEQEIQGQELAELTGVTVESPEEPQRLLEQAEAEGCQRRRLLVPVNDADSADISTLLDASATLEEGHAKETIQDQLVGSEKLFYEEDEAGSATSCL
Method: as §1, §2, §3, §4, §5

[4] = target: T3, human TR4 fusion protein (Homo sapiens, UniProt O00220, H141R/R209T)
T3 construct: made in house
Method: as §1, §2, §3, §4, §5

[5] = target: TR7 (Homo sapiens, UniProt O14763)
Method: as §1, §2, §3, §4, §5

[6] = test system: irrelevant fusion protein
Method: as §1, §2, §3, §4, §5

T3 sequence (O00220 109-240 H141R/R209T): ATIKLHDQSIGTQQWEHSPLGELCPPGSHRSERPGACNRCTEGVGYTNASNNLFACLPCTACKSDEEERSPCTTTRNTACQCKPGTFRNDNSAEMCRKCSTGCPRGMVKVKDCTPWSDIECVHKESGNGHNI
TR7, sequence (O14763 56-411 isoform O14763-2 limits assumed): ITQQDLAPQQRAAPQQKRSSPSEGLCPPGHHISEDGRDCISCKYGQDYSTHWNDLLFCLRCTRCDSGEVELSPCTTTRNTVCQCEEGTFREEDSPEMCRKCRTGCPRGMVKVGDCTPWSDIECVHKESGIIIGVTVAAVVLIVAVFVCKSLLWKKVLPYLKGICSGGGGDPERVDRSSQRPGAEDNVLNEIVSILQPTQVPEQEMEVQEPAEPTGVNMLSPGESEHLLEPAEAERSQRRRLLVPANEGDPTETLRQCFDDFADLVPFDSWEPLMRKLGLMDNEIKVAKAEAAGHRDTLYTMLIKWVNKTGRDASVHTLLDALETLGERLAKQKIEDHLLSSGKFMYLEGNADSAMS
BLyS, sequence (Q9Y275 whole entry, the tested form may be a part): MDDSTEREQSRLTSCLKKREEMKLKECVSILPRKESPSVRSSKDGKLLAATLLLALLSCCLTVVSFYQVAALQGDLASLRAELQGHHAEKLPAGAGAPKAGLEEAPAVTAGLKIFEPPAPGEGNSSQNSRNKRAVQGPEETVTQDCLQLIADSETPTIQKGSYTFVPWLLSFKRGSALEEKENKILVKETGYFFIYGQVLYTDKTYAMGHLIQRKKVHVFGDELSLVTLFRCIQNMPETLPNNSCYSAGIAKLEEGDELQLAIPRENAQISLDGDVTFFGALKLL

binding to BLyS [1]: not
binding to TR5 [2]: not
binding to TR10 [3]: not
binding to TR4 [4]: bind
binding to TR7 [5]: not
binding to an irrelevant fusion protein [6]: not
B1: T1014B11: scFv that immunospecifically binds TRAIL receptor TR4, protein SEQ ID NO:47 (protein)
scFv: EVQLVQSGAEVKKPGASVKVSCKISGDSFTAYFIHWLRQAPGEGLEWMGWFNPISGTAGSPQKFHGRVAMTRDTSISTAYMELTRLASDDTAIYYCARQHHSNTFDPWGQGTLVTVSSGGGGSGGGGSGGGGSAQSALTQPASVSGSPGQSITISCTGTNSDVGGYNYVSWYQQHPGKAPKLMIYEVNNRPSGVSNRFSGSKSGNTASLTISGLQADDEADYYCSSYTTSNTWVFGGGTKLTVLG
modifications: T1014B11 scFv
